In US20190075806A1, “PROTEINASE B AND LACTASE SOLUTION USING ITS PROPERTIES AND METHOD FOR PRODUCING THE SAME” (GODO SHUSEI CO., LTD., priority 2016, published 2019) one finds amount of PrB not causing fragmentation of lactase (30° C., 20 hours, SDS-PAGE) data, which are given here for 1 substance.

The assay concerns the target neutral lactase (GODO-YNL2; unfragmented high molecular fraction F-1, about 120 kDa) (yeast, Kluyveromyces genus) (UniProt P00723). As to the kind of experiment: cell-based or functional assay.

Chain of neutral lactase (GODO-YNL2; unfragmented high molecular fraction F-1, about 120 kDa) (yeast, Kluyveromyces genus) (P00723 whole entry, the tested form may be a part): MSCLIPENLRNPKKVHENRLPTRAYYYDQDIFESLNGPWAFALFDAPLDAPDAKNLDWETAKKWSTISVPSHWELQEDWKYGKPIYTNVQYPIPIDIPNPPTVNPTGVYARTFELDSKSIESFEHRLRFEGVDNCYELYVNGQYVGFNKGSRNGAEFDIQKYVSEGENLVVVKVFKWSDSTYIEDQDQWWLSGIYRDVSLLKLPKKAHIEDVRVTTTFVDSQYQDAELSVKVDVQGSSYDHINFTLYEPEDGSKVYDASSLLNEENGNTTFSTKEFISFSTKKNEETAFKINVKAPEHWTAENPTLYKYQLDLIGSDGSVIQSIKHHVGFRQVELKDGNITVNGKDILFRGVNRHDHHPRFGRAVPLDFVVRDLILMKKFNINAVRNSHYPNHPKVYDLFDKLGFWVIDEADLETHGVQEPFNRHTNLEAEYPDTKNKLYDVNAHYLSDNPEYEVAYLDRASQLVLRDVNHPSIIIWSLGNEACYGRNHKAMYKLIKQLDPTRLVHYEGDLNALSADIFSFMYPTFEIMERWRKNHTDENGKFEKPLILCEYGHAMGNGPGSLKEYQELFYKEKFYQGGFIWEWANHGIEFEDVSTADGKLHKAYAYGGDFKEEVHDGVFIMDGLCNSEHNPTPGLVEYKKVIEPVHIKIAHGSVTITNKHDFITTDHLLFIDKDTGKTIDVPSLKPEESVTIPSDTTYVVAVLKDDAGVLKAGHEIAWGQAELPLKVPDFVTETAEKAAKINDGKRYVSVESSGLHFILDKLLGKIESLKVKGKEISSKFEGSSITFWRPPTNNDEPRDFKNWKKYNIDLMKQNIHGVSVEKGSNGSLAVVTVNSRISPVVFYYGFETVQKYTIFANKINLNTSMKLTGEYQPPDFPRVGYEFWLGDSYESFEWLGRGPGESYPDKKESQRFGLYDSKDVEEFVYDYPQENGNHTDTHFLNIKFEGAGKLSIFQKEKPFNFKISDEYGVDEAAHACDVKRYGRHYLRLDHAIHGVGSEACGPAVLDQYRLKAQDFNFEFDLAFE

On to “proteinase B derived from Kluyveromyces lactis (mature enzyme)”, for which the amount of PrB not causing fragmentation of lactase (30° C., 20 hours, SDS-PAGE) stood at 0.26 ng per NLU.
